Article PMC11739670
“And” between values parts separate entries of the source, which are not always exact repeats. Equal entries are not always repeated.

Legend:
[1] = molecular target: MHCI-related protein 1 (MR1) with β2m, loaded with 6-formylpterin (human) (UniProt Q95460); test: SPR; BIAcore T200, CM5 chip with streptavidin; biotinylated pMHCI, MR1 or CD1 captured; serial dilution of CD8-Fc fusion injected; 25°C, PBS with 0.005% Tween 20; steady-state responses, 1:1 Langmuir fit
[2] = molecular target: MHCI-related protein 1 (MR1) with β2m, loaded with 5-formyl salicylic acid (human) (UniProt Q95460); test: as above
[3] = molecular target: MHCI-related protein 1 (MR1) with β2m, loaded with 5-(2-oxopropylideneamino)-6-d-ribitylaminouracil (human) (UniProt Q95460); test: as above
[4] = molecular target: MHCI-related protein 1 (MR1) with β-2 microglobulin, biotinylated, loaded with model ligands (UniProt Q95460); test: SPR; biotinylated ligands (pMHCI, MR1, CD1) captured on streptavidin coupled to a CM5 chip; serial dilution of each CD8-Fc fusion injected; steady-state responses, 1:1 Langmuir fit; BIAcore T200, 25°C, PBS with 0.005% Tween 20
[5] = molecular target: HLA-A*03:01 with peptide […]; test: SPR
[6] = molecular target: HLA-A*24:02 peptide-MHC class I (biotinylated pMHCI); test: SPR; biotinylated ligands (pMHCI, MR1, CD1) captured on streptavidin coupled to a CM5 chip; serial dilution of each CD8-Fc fusion injected; steady-state responses, 1:1 Langmuir fit; BIAcore T200, 25°C, PBS with 0.005% Tween 20

| Kd [1] | Kd [2] | Kd [3] | Kd [4] [µM] | Substance | Kd [5] [µM] | Kd [6] [µM] |
| --- | --- | --- | --- | --- | --- | --- |
| 248 µM and 280 µM | 222 µM and 236 µM | 248 µM and 274 µM | 250 | soluble human CD8αα-Fc homodimer (from UniProt P01732 22-182) (Fc fusion) | – | – |
| – | – | – | – | soluble human CD8αβ-Fc heterodimer (from UniProt P01732 22-182; P10966 22-170) (Fc fusion) | 127 | 230 |
